According to US20030171537, “Peptides and peptidomimetics with structural similarity to human p53 that activate p53 function” (published 2003):

Target: p53 wild-type (Homo sapiens, UniProt P04637 SEQ:1-393)
Assay: EMSA; binds quite efficiently; PAb421 stimulation +
Details: chain copies: 4 inferred; label: 32P
Experimental: Briefly the in vitro translated protein is incubated with a radioactively labeled oligonucleotide containing a p53 binding site in the presence of non-specific competitor DNA. The reaction mixture is incubated 20 min. at room temperature and directly loaded on a native 5% polyacrylamide electrophoresis gel. In this type of DNA binding assay free DNA migrates to the bottom of the gel, whereas p53/DNA complexes migrate more slowly.

p53 wild-type, sequence (P04637 whole entry): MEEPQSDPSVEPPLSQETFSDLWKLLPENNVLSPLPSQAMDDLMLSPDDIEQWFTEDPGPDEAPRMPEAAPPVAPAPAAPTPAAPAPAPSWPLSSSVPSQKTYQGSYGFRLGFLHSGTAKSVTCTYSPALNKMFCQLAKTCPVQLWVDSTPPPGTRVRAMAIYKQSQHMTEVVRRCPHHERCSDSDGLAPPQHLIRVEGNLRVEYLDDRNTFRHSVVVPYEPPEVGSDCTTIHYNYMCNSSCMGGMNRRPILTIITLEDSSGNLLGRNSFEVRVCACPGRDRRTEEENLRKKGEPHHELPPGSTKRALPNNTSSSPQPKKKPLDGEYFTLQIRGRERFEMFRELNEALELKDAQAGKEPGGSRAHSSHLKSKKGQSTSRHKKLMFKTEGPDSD

B1: BC (dsDNA)
DNA 1: CCGGGCATGTCCGGGCATGTCCGGGCATGT
DNA 2: ACATGCCCGGACATGCCCGGACATGCCCGG
binding result: binds
